The record followed here is patent US20260265354A1 (JIANGSU MABWELL HEALTH PHARMACEUTICAL R AND D, published 2026).

Test in all cases: ELISA, coated antigen, antibody at 1000 ng/ml
The target in experiment [1] is T1, Nectin-like-3 (UniProt Q8N3J6 25-367, limits assumed).
T1 construct: Bought recombinant protein; also called CADM2; IgSF4D
T1 sequence (looked up): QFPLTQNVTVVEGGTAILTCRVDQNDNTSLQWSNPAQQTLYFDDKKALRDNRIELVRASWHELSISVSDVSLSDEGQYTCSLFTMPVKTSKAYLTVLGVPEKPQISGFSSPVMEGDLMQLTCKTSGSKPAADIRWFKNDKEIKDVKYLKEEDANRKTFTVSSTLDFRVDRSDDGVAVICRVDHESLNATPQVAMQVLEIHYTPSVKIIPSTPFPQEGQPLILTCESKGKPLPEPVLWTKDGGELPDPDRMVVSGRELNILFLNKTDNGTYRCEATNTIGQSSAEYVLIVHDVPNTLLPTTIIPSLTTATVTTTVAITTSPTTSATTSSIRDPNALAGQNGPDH
The procedure: (§1) Coating: Nectin-1, Nectin-2, Nectin-3, Nectin-4, Nectin-like-1, Nectin-like-2, Nectin-like-3, Nectin-like-4, and Nectin-like-5 were diluted to 5 μg/ml in coating buffer (carbonate buffer, pH 9.6) respectively. A 96-well plate was coat with 100 μl per well and incubated overnight at 2-8° C.;
(§2) Sample loading: The plate was taken out, patted dry, and washed twice with 200 μl/well of PBST, then patted dry. The Nectin-4 antibodies prepared in Example 1 (antibody MM11, antibody R012, and antibody R036) were diluted with 1% BSA/PBST to concentrations of 10 μg/ml, 1 μg/ml, 100 ng/ml, and 10 ng/ml, respectively. 1% BSA/PBST solution for dilution was set as a blank control. 100 μl per well was added to the 96-well plate, and incubated at room temperature for 2 hours;
(§3) Reaction termination and plate reading: 100 μl/well of 1 mol/L H3PO4 was added to terminate the reaction and the plated was read. The absorbances of wells in the plate at 450 nm with 650 nm as reference wavelength were read and recorded as OD_{450 nm-650 nm}.

The target of experiment [2] is T2, Nectin-like-5 (UniProt P15151 21-343).
T2 construct: Bought recombinant protein; also called CD155; PVR
T2 sequence (looked up): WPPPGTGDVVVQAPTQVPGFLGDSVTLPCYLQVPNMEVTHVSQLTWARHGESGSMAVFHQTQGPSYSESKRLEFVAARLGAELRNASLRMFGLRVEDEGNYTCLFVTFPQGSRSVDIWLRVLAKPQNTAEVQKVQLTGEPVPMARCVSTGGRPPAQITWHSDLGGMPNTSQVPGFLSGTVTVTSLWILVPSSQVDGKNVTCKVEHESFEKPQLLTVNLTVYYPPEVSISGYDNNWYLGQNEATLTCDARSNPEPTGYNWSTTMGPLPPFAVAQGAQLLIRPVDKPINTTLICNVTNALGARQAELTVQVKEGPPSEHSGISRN
As to the method: as §1, §2, §3

The target of experiment [3] is T3, recombinant human Nectin-4 protein (human, UniProt Q96NY8 32-349).
T3 construct: Prepared in-house (Jiangsu Mabwell) by transient transfection of CHO cells; also called PVRL-4; PRR-4
T3 sequence: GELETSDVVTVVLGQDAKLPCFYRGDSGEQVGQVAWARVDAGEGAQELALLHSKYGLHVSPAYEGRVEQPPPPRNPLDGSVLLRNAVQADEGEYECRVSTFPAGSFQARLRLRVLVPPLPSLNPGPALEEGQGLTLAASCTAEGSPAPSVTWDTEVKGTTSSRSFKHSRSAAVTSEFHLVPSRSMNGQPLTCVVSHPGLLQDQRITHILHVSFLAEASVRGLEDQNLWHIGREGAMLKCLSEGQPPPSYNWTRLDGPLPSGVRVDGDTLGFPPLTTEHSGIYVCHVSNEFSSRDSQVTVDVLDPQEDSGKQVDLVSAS
As to the method: as §1, §2, §3

Experiment [4] concerns the target T4, Nectin-1 (UniProt Q15223 31-334, limits assumed).
T4 construct: Bought recombinant protein; also called CD111; PVRL-1
T4 sequence (looked up): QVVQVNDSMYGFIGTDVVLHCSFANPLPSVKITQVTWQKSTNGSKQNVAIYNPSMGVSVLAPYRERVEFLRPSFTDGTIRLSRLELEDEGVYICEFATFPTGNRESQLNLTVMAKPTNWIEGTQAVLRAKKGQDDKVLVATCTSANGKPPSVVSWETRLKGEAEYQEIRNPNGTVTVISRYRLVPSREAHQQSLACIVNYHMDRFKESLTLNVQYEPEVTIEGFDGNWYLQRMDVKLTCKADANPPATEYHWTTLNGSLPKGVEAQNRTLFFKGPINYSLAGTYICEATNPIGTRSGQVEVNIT
As to the method: as §1, §2, §3

The target of experiment [5] is T5, Nectin-2 (UniProt Q92692 32-360, limits assumed).
T5 construct: Bought recombinant protein; also called CD112; PVRL-2
T5 sequence (looked up): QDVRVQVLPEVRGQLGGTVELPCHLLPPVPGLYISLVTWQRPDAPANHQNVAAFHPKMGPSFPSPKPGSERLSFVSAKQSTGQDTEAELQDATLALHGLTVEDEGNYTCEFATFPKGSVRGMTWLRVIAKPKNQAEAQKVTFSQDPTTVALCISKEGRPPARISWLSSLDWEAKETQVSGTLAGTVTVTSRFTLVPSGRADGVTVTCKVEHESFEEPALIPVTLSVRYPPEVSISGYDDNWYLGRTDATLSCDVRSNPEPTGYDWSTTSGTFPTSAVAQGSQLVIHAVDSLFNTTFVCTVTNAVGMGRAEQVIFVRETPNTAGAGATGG
As to the method:
as §1, §2, §3

In experiment [6] the target is T6, Nectin-3 (UniProt Q9NQS3 58-404, limits assumed).
T6 construct: Bought recombinant protein; also called CD113; PVRL-3
The procedure:
as §1, §2, §3

Experiment [7] concerns the target T7, Nectin-like-1 (UniProt Q8N126 25-330, limits assumed).
T7 construct: Bought recombinant protein; also called CADM3; IgSF4B
T7 sequence (looked up): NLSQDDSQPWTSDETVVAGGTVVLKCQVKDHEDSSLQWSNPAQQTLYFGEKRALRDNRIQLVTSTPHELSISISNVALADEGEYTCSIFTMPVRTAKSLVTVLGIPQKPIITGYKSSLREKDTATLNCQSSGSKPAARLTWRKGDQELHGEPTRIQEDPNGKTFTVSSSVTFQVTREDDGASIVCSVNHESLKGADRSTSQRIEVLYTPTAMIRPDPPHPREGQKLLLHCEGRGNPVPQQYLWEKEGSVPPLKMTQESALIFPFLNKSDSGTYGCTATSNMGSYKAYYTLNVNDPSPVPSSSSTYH
As to the method: as §1, §2, §3

Numbering of substitutions follows the chain as printed.

T6 sequence (Q9NQS3 58-404 limits assumed): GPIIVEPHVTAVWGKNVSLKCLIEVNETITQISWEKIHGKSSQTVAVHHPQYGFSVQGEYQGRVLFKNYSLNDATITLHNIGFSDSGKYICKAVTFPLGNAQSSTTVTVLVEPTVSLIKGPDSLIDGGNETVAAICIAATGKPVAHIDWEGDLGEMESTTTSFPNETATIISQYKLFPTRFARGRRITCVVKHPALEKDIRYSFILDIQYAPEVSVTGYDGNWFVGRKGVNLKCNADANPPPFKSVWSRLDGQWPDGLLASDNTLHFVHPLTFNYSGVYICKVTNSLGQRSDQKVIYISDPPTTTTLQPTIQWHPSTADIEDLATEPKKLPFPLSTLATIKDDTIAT

B1: Antibody MM11 (antibody, mouse IgG1, kappa, V domains shown)
VH: DVQLQESGPGLVKPSQSLSLTCSVTGYSITSNFYWNWIRQFPGNRLEWMGYISYDGSNNYNPSLKNRISISRDTSKNQFFLKLNSVTTEDTATYYCVRADYWGQGTLVTVSA
VL: DTVMTQTPLSLPVSLGDQASISCRSSQSLESSDGHAYLNWYLQKPGQSPQLLIYRVSNRFSGVLHRFSGSGSGTDFTLKISRVEAEDLGVYFCLQFTHVPFTFGSGTKLEIKR
notes: Mouse monoclonal antibody from hybridoma; also called Nectin-4 mouse monoclonal antibody MM11; mouse antibody MM11
Take B1: the OD detection value is 0.029 OD450 nm-650 nm in experiment [1]; 0.008 OD450 nm-650 nm in experiment [2]; 2.05 OD450 nm-650 nm in experiment [3]; 0.007 OD450 nm-650 nm in experiment [4]; 0.008 OD450 nm-650 nm in experiment [5]; 0.008 OD450 nm-650 nm in experiment [6]. For the same molecule, the OD detection value in experiment [7] was 0.008 OD450 nm-650 nm.

B2: Antibody R012 (antibody, V domains shown)
VH: SKSVEESGGRLVTPGTPLTLTCTVSGFSLSTYAMSWVRQAPGKGLEYIGIISGRGTTYYASWLKGRFTISKTSTTVDLKITSPTTEDTATYFCARDAGISDVYTGYFNLWGQGTLVTVSS
VL: QPVLAQLPSASAALGASAKLTCTLSSAHRTYTIAWYQQQQGEAPRYLMMLKSDGSYTKGTGVPDRFSGSSSGADRYLIISSVQAADEADYYCGADDSGGYVFGGGTQLTVTG
notes: Rabbit monoclonal antibody from phage display; also called Nectin-4 rabbit monoclonal antibody R012; rabbit antibody R012
Turning to B2, the OD detection value amounted to 0.008 OD450 nm-650 nm in experiment [1]; 0.008 OD450 nm-650 nm in experiment [2]; 1.56 OD450 nm-650 nm in experiment [3]; 0.007 OD450 nm-650 nm in experiment [4]; 0.007 OD450 nm-650 nm in experiment [5]; 0.007 OD450 nm-650 nm in experiment [6]. Further, in experiment [7], the OD detection value was 0.01 OD450 nm-650 nm.

B3: Antibody R036 (antibody, V domains shown)
VH: SQSVEESGGRLVTPGTPLTLTCTVSGFSLSSYAMSWVRQAPGKGLEYIGIIGGRGTTYYAIWAKGRFTISKTSTTVDLKITSPTTEDTATYFCARDAGTTYVGTTYVATGYFNLWGQGTLVTVSS
VL: B2 VL with A5T, L7P, R29K, M49I, K58R, A85D
notes: Rabbit monoclonal antibody from phage display; also called Nectin-4 rabbit monoclonal antibody R036; rabbit antibody R036
B3: the OD detection value amounted to 0.007 OD450 nm-650 nm in experiment [1]; 0.009 OD450 nm-650 nm in experiment [2]; 1.64 OD450 nm-650 nm in experiment [3]; 0.006 OD450 nm-650 nm in experiment [4]; 0.007 OD450 nm-650 nm in experiment [5]; 0.007 OD450 nm-650 nm in experiment [6]. The molecule further registered an OD detection value in experiment [7] of 0.007 OD450 nm-650 nm.
